Where “and” joins values, the source holds several entries; their conditions need not be identical. Identical values can stand only once. Blank lines part the entries; values can stand above or below the binder they belong to.
Molecular target: T1, CD20 on CD20 positive lymphoma cells (Daudi, Raji) (human) (UniProt P11836)
T1 sequence: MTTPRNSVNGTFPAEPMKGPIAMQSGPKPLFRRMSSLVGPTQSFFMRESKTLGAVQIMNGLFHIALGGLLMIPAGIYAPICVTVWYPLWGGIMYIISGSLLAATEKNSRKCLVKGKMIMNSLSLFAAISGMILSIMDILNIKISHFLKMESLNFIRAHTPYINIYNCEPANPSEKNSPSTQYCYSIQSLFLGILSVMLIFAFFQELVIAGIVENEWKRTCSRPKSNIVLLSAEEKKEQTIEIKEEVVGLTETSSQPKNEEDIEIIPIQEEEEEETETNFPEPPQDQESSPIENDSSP
Assay: cell-based or functional assay

B1: anti-CD20-Phor18 minibody conjugate Fv-CH3-CH3-Fv-Phor18 (protein)
chain: DIQLTQSPAILSASPGEKVTMTCRASSSVSYIHWFQQKPGSSPKPWIYATSNLASGVPVRFSGSGSGTSYSLTISRVEAEDAATYYCQQWTSNPPTFGGGTKLEIGSTSGGGSGGGSGGGGSSVQLQQPGAELVKPGASVKMSCKASGYTFTSYNMHWVKQTPGRGLEWIGAIYPGNGDTSYNQKFKGKATLTADKSSSTAYMQLSSLTSEDSAVYYCARSTYYGGDWYFDVWGQGTTVTVSSGQPREPQVYTLPPSRDELTKNQVSLTCLVKGFYPSDIAVEWESNGQPENNYKTTPPVLDSDGSFFLYSKLTVDKSRWQQGNVFSCSVMHEALHNHYTQKSLSLSPGKGSTSGGGSGGGSGGGGSSGQPREPQVYTLPPSRDELTKNQVSLTCLVKGFYPSDIAVEWESNGQPENNYKTTPPVLDSDGSFFLYSKLTVDKSRWQQGNVFSCSVMHEALHNHYTQKSLSLSPGKVQLQQPGAELVKPGASVKMSCKASGYTFTSYNMHWVKQTPGRGLEWIGAIYPGNGDTSYNQKFKGKATLTADKSSSTAYMQLSSLTSEDSAVYYCARSTYYGGDWYFDVWGQGTTVTVSSGSTSGGGSGGGSGGGGSSDIQLTQSPAILSASPGEKVTMTCRASSSVSYIHWFQQKPGSSPKPWIYATSNLASGVPVFSGSGSGTSYSLTISRVEAEDAATYYCQQWTSNPPTFGGGTKLEIGSKFAKFAKKFAKFAKKFAK
- IC50 nM, cell viability 24 h, Daudi (CD20 positive): 10.5 nM
- IC50 nM, cell viability 46 h, Daudi (CD20 positive): 3.6 nM

- IC50 nM, membrane integrity 2 h, Daudi (CD20 positive): 110 nM
- IC50 nM, membrane integrity 5 h, Daudi (CD20 positive): 112 nM
- caspase 3/7 activation relative to staurosporine (100%), CD20 positive cells, 5 h: 18.3% and 29.3%
B2: anti-CD20 scFv-Phor18 conjugate (C-terminus) (scFv)
scFv: HHHHHHDIQLTQSPAILSASPGEKVTMTCRASSSVSYIHWFQQKPGSSPKPWIYATSNLASGVPVRFSGSGSGTSYSLTISRVEAEDAATYYCQQWTSNPPTFGGGTKLEIGSTSGGGSGGGSGGGGSSVQLQQPGAELVKPGASVKMSCKASGYTFTSYNMHWVKQTPGRGLEWIGAIYPGNGDTSYNQKFKGKATLTADKSSSTAYMQLSSLTSEDSAVYYCARSTYYGGDWYFDVWGQGTTVTVSSGSKFAKFAKKFAKFAKKFAK
- IC50 nM, cell viability 24 h, Daudi (CD20 positive): 10 nM
- IC50 nM, cell viability 46 h, Daudi (CD20 positive): 1.5 nM

— patent US20220048951A1
